According to publication PMC5267338:

Assays:
[1] = target: human mitochondrial ferredoxin 1 (FDX1), holo form with [2Fe-2S] cluster (H. sapiens); assay: ITC
[2] = target: human mitochondrial ferredoxin 2 (FDX2), holo form with [2Fe-2S] cluster (H. sapiens) (UniProt Q6P4F2); assay: ITC
Sequence of human mitochondrial ferredoxin 2 (FDX2), holo form with [2Fe-2S] cluster (H. sapiens) (Q6P4F2 53-183): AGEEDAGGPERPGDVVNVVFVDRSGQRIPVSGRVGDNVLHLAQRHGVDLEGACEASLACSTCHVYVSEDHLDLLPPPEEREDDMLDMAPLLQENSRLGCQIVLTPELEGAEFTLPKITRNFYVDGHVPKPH

Sequence of [Acp]2:[ISD11]2:[NFS1]2 complex (cysteine desulfurase complex) (Q9Y697 53-457): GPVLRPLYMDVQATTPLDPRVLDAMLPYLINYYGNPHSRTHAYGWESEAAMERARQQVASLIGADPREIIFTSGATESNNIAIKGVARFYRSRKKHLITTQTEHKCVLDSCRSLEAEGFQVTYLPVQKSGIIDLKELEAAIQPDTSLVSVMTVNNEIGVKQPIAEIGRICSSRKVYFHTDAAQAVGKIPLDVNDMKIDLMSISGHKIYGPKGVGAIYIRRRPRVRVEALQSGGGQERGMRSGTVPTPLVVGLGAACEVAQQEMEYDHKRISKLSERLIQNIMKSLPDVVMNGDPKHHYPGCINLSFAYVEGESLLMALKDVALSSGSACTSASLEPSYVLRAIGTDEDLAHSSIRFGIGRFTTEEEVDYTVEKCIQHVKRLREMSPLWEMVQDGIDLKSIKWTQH
Sequence of [Acp]2:[ISD11]2:[NFS1]2 complex (cysteine desulfurase complex) (Q9HD34 whole entry): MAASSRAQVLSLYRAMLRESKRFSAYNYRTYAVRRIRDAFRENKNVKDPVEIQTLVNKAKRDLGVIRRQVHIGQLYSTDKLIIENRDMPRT
Sequence of [Acp]2:[ISD11]2:[NFS1]2 complex (cysteine desulfurase complex) (P0A6A8 2-78): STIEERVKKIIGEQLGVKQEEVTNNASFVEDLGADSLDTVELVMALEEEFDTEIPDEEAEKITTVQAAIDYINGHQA

Substance: [Acp]2:[ISD11]2:[NFS1]2 complex (cysteine desulfurase complex) (from UniProt Q9Y697 53-457; Q9HD34 1-91; P0A6A8 2-78)
- Kd [1]: 41.7 µM
- Kd [2]: 14.9 µM
